In article PMC5984625, “Dynamic structural states of ClpB involved in its disaggregation function” (Nature Communications, 2018):
Values joined by “and” are separate entries in the source; they are usually repeats but may differ in a detail not shown here. Equal values may be shown once. One block for each substance: values may come before it.

Legend:
[1] = target: N-terminal deletion mutant of TClpB (ΔN-TClpB) (Thermus thermophilus); assay: AUC; sedimentation velocity, 20 °C, 42,000 rpm, 50 mM MOPS pH 7.5, 50 mM KCl, 5 mM MgCl2, 0.5 and 2.0 mg/mL protein, with 20 mM ADP (preincubated 55 °C 1 min)
[2] = target: N-terminal deletion mutant of TClpB (ΔN-TClpB) (Thermus thermophilus); assay: native MS; incubated at 55 °C with 2 mM ATP or ATPγS for 1 min, exchanged into 150 mM ammonium acetate pH 7.5 with 100 µM ATP or ATPγS at 4 °C; nanoflow electrospray
[3] = target: N-terminal deletion mutant of TClpB (ΔN-TClpB) (Thermus thermophilus); assay: AUC; sedimentation velocity, 20 °C, 42,000 rpm, 50 mM MOPS pH 7.5, 50 mM KCl, 5 mM MgCl2, 0.5 and 2.0 mg/mL protein, with 20 mM ATP (preincubated 55 °C 1 min)
[4] = target: N-terminal deletion mutant of TClpB (ΔN-TClpB) (Thermus thermophilus); assay: AUC; sedimentation velocity, 20 °C, 42,000 rpm, 50 mM MOPS pH 7.5, 50 mM KCl, 5 mM MgCl2, 0.5 and 2.0 mg/mL protein, with 2 mM ATPγS (preincubated 55 °C 1 min)
[5] = target: N-terminal deletion mutant of TClpB (ΔN-TClpB) (Thermus thermophilus); assay: high-speed atomic force microscopy (HS-AFM); self-association; sample preincubated with 2 mM ATP at 55 °C for 1 min, adsorbed on bare mica, imaged at 25 °C in 50 mM MOPS pH 7.5, 20 mM KCl, 5 mM MgCl2 with ATP (10 μM to 2 mM for ΔN-TClpB, 0.5 mM for full length, 1 mM for the mutants; also 1 mM ATPγS or ADP)
[6] = test system: T1, Nc1ncnc2c1ncn2[C@@H]1O[C@H](COP(=O)(O)OP(=O)(O)OP(=O)(O)O)[C@@H](O)[C@H]1O; assay: purified protein; format: biochemical, Thermus thermophilus; settings: Hill equation fit, Hill coefficient 2.6 ± 0.6, pH 7.5, 20 mM KCl, 5 mM MgCl2, 25 °C
T1 construct: N-terminal domain deletion (AAA1, M-domain and AAA2 kept); from plasmid pMCB1; expressed in E. coli BL21(DE3) or KRX; purified; hexamer and smaller oligomers

[7] = target: ΔN-TClpB hyperactive mutant Y494D (Thermus thermophilus); assay: high-speed atomic force microscopy (HS-AFM); self-association; sample preincubated with 2 mM ATP at 55 °C for 1 min, adsorbed on bare mica, imaged at 25 °C in 50 mM MOPS pH 7.5, 20 mM KCl, 5 mM MgCl2 with ATP (10 μM to 2 mM for ΔN-TClpB, 0.5 mM for full length, 1 mM for the mutants; also 1 mM ATPγS or ADP)
[8] = target: ΔN-TClpB repressed mutant E423A (Thermus thermophilus); assay: as above

Sequence of ΔN-TClpB (Thermus thermophilus HB8) (chain, as listed by the source mutant): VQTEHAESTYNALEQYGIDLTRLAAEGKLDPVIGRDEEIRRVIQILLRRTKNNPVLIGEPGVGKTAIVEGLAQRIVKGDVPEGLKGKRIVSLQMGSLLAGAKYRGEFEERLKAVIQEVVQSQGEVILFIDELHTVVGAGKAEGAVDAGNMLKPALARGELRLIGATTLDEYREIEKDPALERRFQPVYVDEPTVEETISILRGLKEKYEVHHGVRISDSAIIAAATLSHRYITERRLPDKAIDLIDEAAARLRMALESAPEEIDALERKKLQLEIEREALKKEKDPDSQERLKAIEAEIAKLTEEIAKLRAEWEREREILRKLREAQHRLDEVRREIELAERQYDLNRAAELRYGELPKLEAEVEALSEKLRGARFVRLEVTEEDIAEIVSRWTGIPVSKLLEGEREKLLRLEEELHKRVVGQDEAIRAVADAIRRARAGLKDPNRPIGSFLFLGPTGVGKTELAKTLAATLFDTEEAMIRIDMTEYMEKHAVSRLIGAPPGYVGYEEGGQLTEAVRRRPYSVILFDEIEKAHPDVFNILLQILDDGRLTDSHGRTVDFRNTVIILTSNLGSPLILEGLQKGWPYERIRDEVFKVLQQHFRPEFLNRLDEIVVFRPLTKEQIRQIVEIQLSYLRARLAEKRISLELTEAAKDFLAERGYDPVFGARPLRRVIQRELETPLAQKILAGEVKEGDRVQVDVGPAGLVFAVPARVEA

stoichiometry N [1]: < 6
stoichiometry N [2]: 2 and 6
stoichiometry N [3]: 6 and 3
stoichiometry N [4]: 6
stoichiometry N [5]: 6 and 3 to 8 (2×)
Substance: N-terminal deletion mutant of TClpB (ΔN-TClpB) (domain or fragment)

Substance: ΔN-TClpB (Thermus thermophilus HB8)
K0.5 [6]: 0.16 ± 0.02 mM

stoichiometry N [7]: 6
Substance: ΔN-TClpB hyperactive mutant Y494D (domain or fragment)

stoichiometry N [8]: 6
Substance: ΔN-TClpB repressed mutant E423A (domain or fragment)
